Test results: patent publication US6887705B1, “Tyrosine phosphorylated cleavage furrow-associated proteins (PSTPIPs)” (Genentech, Inc., priority 1997, dated 2005)

How the values were obtained:
Assay in all cases: in vitro translated PTP HSCF mutant precipitated with 1 or 10 µg/ml GST PST PIP
[1] = target: T1, PTP HSCF with P443 mutated to alanine, HA tagged (UniProt Q61152 1-453)
T1 construct: range 1-453; also called HSCF P443
T1 sequence (looked up): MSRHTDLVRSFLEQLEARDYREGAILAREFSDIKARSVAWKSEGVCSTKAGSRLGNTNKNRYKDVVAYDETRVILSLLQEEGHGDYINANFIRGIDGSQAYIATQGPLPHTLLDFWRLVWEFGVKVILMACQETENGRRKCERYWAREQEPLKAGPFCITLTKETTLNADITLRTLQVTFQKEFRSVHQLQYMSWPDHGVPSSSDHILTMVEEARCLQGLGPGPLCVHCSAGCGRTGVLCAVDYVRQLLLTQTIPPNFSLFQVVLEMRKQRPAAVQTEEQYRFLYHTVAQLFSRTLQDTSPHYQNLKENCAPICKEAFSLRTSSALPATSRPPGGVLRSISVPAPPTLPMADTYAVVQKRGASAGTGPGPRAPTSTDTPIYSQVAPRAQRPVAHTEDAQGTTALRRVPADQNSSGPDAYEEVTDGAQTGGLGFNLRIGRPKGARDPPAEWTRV
Method: (§1) Multiple bands precipitated with the GST PST PIP fusion protein are apparently C-terminal proteolyzed products of the PTP. Also shown are GST PST PIP precipitations (10 μg/ml) performed on a double mutant of PTP HSCF (R+W) with both residues $R444$ and $W450$ mutated to alanine (bottom panel FIG. 14 A/2). B. COS cells were co-transfected with a 10:1 ratio of plasmids encoding hemagglutinin (HA) tagged PTP HSCF with the illustrated alanine substitutions or a mutant of PTP HSCF deleted for the C-terminal 24 amino acids (PTP $HSCFD24$) and wild type PST PIP with a C-terminal FLAG epitope tag, respectively. Transfected cell lysates were immunoprecipitated with anti-HA monoclonal antibodies and the precipitates were blotted with anti-PST PIP polyclonal antibody to detect the relative amounts of PST PIP complexed with either wild type or different mutant forms of PTP HSCF. Lysates were also immunoprecipitated with anti-HA antibody and blotted with the same antibody to insure equal expression of PTP HSCF. Equal expression of PSTPIP was determined by immunoprecipitating lysates with anti-FLAG monoclonal antibody and blotting with anti-PST PIP polyclonal antibody.
(§2) In vitro binding analyses between various PTP HSCF and PST PIP constructs were performed as previously described (Spencer et al, (1997), supra). Briefly, plasmids were transcribed and translated in vitro using the TnT Rabbit Reticulocyte Lysate System (Promega). Samples were diluted in 50 mM HEPES, pH 7.2, 1% triton X-100, 10% glycerol, 100 mM NaCl, and 2 µg/ml each of leupeptin, pepstatin, aprotinin and PMSF (lysis buffer). Samples were than reacted with GST fusion proteins at various concentrations, and the bound proteins were centrifuged using glutathione-sepharose beads and analyzed on SDS polyacrylamide gels. C-terminally-derived peptide inhibition studies were performed by incubating the GST fusion protein binding reactions in the presence of 10 µg/ml of the indicated peptides. Peptides were produced by FMOC-protected amino acids as previously described (Spencer et al, (1997), supra). In vivo interactions between various forms of PTP HSCF and PST PIP were also performed as previously described (Spencer et al, (1997), supra).

[2] = target: T2, PTP HSCF with G442 mutated to alanine, HA tagged (UniProt Q61152 1-453)
T2 construct: range 1-453; also called HSCF G442
T2 sequence (looked up): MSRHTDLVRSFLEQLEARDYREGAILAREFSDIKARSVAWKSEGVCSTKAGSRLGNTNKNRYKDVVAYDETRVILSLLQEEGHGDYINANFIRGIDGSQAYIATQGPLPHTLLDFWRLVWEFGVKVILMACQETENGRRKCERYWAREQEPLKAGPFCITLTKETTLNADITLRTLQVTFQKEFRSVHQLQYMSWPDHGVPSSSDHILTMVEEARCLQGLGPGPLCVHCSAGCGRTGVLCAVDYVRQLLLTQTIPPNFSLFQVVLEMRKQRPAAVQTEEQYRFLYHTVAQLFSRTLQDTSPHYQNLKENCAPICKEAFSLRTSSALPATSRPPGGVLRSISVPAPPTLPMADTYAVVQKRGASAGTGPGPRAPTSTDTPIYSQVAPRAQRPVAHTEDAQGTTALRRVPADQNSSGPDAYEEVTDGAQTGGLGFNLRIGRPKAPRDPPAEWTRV
Method: as §1, §2

[3] = target: T3, PTP HSCF with W450 mutated to alanine, HA tagged (UniProt Q61152 1-453)
T3 construct: range 1-453; also called HSCF W450
T3 sequence (looked up): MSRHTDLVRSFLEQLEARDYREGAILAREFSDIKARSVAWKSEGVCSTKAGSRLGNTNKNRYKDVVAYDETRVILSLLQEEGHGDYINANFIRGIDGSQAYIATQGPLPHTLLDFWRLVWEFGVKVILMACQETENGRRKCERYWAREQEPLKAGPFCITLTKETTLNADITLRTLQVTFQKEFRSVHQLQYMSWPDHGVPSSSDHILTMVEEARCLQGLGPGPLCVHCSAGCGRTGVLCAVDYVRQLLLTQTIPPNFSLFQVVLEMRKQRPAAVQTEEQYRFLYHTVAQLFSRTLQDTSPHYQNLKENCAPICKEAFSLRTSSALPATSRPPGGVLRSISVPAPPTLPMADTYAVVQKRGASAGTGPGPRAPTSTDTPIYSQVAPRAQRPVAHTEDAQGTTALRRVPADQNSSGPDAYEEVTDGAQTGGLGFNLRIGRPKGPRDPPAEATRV
Method: as §1, §2

[4] = target: T4, PTP HSCF with R436 mutated to alanine, HA tagged (UniProt Q61152 1-453)
T4 construct: range 1-453; also called HSCF R436
T4 sequence (looked up): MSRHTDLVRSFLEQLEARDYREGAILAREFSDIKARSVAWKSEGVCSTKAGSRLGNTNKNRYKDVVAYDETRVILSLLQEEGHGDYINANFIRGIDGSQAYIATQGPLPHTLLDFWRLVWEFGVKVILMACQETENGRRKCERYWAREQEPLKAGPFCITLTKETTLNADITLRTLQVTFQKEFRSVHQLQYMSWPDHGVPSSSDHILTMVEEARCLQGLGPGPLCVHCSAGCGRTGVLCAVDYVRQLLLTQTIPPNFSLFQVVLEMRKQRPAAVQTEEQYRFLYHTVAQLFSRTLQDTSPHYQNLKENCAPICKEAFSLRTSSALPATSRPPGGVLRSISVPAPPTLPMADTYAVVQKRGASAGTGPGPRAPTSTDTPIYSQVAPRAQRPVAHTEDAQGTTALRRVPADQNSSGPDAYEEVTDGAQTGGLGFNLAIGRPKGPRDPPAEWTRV
Method: as §1, §2

Measured: binding result

B1: GST-PSTPIP (GST fusion of full-length PSTPIP, amino acids 2-415) (other)
chain: MAQLQFRDAFWCRDFTAHTGYEVLLQRLLDGRKMCKDVEELLRQRAQAEERYGKELVQIARKAGGQTEMNSLRTSFDSLKQQTENVGSAHIQLALALREELRSLEEFRERQKEQRKKYEAIMDRVQKSKLSLYKKTMESKKAYDQKCRDADDAEQAFERVSANGHQKQVEKSQNKAKQCKESATEAERVYRQNIEQLERARTEWEQEHRTTCEAFQLQEFDRLTILRNALWVHCNQLSMQCVKDDELYEEVRLTLEGCDVEGDINGFIQSKSTGREPPAPVPYQNYYDREVTPLIGSPSIQPSCGVIKRFSGLLHGSPKTTPSAPAASTETLTPTPERNELVYASIEVQATQGNLNSSAQDYRALYDYTAQNSDELDISAGDILAVILEGEDGWWTVERNGQRGFVPGSYLEKL
notes: Made in DH5-alpha bacteria from pGEX4T-2; also called GST-full-length PSTPIP; GST PTP PIP; not shown: glutathione S-transferase encoded by pGEX-4T-2 (Pharmacia)
binds: all assays above
